Test results from patent US7235648B1, “Yeast cells engineered to produce pheromone system protein surrogates, and uses therefor” (Cadus Technologies, Inc., priority 1993, dated 2007).

Columns and labels:
yeast Gβγ = molecular target: T1, yeast Gβγ (Saccharomyces cerevisiae, UniProt P18851+P18852); test: Coupling of Gα subunits and hybrids to yeast Gβγ: complementation of gpa1 growth arrest phenotype and fus1-HIS3 transcription; type: cell-based
T1 construct: Endogenous Gβγ subunits will be provided by the yeast STE4 and STE18 loci; endogenous in cells; host or cells: S. cerevisiae gpa1 tester strains
T1 sequence (P18851 1-423): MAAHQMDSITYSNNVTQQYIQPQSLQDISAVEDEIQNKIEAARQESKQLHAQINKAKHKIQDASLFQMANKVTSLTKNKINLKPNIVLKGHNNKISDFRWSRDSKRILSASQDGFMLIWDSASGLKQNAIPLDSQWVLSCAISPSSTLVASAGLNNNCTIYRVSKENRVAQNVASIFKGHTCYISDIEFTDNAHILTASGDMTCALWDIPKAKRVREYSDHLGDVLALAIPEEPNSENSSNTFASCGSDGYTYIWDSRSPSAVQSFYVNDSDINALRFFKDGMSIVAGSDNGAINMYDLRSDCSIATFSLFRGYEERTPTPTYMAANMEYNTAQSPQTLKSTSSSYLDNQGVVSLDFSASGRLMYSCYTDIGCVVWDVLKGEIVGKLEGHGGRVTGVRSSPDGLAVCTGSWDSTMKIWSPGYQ
T1 sequence (P18852 1-107 limits assumed): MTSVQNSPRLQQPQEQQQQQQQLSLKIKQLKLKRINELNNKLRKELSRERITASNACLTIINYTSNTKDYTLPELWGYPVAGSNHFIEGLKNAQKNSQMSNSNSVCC
Text: We have tested the hypothesis that there are switch region determinants involved in the association of Gα with Gβγ by constructing a series of hybrid Gα proteins encoding portions of GPA1 and GαS in different combinations (FIG. 11).
Preferably, levels of Gα and Gβγ subunits are balanced. For example, heterologous Gα subunits may be expressed from a low copy (CEN ARS) vector containing the endogenous yeast GPA1 promotor and the GPA1 3′ untranslated region. The minimum criterion, applied to a heterologous Gα subunit with respect to its ability to couple functionally to the yeast pheromone pathway, is that it complement a gpa1 genotype when expressed from the GPA1 promoter on low copy plasmids or from an integrated, single copy gene. In the work described in this application, all heterologous Gα subunits have been assayed in two biological systems.

C5a receptor [1] = molecular target: T2, C5a receptor (Homo sapiens, UniProt P21730); test: Coupling of the C5a receptor to Gα chimeras in yeast; type: cell-based; design: expressed in transfected cells; host or cells: S. cerevisiae CY455 / CY878 carrying GPA1(41)-Gαi2, plasmid Cadus 1303; conditions: GPA1 promoter; single copy integrated or low copy plasmid
T2 sequence (P21730 1-350): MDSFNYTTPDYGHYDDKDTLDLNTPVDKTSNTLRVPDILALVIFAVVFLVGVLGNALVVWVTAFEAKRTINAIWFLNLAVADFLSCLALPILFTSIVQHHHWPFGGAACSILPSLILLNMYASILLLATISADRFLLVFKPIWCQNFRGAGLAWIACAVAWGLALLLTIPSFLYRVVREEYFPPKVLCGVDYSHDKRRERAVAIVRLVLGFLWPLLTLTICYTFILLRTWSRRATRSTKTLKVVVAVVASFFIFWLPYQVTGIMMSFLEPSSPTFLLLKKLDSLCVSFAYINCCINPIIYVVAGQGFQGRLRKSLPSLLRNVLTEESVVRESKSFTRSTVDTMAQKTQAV
Procedure: Coupling by chimeric Gα_proteins._The Gα chimeras described above were tested for the ability to couple a mammalian G protein-coupled receptor to the pheromone response pathway in yeast. Results obtained using GPA141-Gαi2 to couple the human C5a receptor to the pheromone response pathway in autocrine strains of yeast are disclosed in Example 10 above.
With this phenomenon, there is an increase in growth on selective media for strains containing heterologous receptor in the absence of ligand. It is possible that some receptor antagonists would decrease LIRMA. It has been noted (Milano, et al. 1994) that specific antagonists reduce LIRMA of the β2 adrenergic receptor when that receptor is overexpressed in transgenic mice.

induced HL60 cells = molecular target: T3, induced HL60 cells (Homo sapiens, UniProt P21730); test: Competition with radiolabeled C5a for binding on induced HL60 cells; conditions: C5a expressed in yeast
T3 construct: endogenous in cells; host or cells: induced HL60 cells
T3 sequence (P21730 1-350): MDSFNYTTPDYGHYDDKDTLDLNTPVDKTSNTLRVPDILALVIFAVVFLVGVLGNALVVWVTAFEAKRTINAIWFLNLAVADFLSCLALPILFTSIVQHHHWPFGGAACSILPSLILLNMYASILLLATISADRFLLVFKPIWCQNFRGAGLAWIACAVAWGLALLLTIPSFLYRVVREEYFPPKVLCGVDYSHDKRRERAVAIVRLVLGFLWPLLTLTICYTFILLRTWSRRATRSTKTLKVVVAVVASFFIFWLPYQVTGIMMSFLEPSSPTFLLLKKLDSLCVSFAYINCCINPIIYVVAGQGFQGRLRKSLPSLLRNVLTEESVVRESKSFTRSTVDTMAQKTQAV

C5a receptor [2] = molecular target: T2, C5a receptor; test: Autocrine yeast expressing human C5a receptor and human C5a, growth read-out (fus1-HIS3); type: cell-based; design: expressed in transfected cells; host or cells: S. cerevisiae CY455 / CY878 carrying GPA1(41)-Gαi2, plasmid Cadus 1303
Text: The strain used for this analysis, CY455 (MATαtbt1-1 ura3 leu2 trp1 his3 fus1-HIS3 can1 ste14::TRP1 ste3*1156), contains the following significant modifications. A pheromone inducible HIS3 gene, fus1-HIS3, is integrated at the FUS1 locus. A hybrid gene containing sequence encoding the first 41 amino acids of GPA1 (the yeast Gα subunit) fused to sequence encoding human Gαi2a (minus codons for the N-terminal 33 amino acids) replaces GPA1 at its normal chromosomal location. The yeast STE14 gene is disrupted to lower the basal level of signaling through the pheromone response pathway. The yeast a-factor receptor gene, STE3, is deleted. The last two modifications are probably not essential but appear to improve the signal-to-noise ratio. […]
Three colonies were picked from each transformation and grown overnight in media lacking leucine and uracil, at pH 6.8 with 25 mM PIPES (LEU^− URA^− pH6.8 with 25 mM PIPES). […] The optical density at 600 nm of a 1/20 dilution of these cultures was determined and the cultures were diluted into 25 mM PIPES pH 6.8 to a final OD600 of 0.2. […] For verification of pheromone pathway activation and quanti-fication of the stimulation, the activity of the fus1 promoter was determined colorometrically using a fus1-lacZ fusion in a similar set of strains. […]

C5a receptor [3] = molecular target: T2, C5a receptor; design: host or cells: mammalian cells (not specified); conditions: mammalian cells; Boulay et al. 1991; read-out: binding constant of C5a to its receptor; cited from earlier work

B1: GPA141-Gαi2: first 41 amino acids of GPA1 fused to human Gαi2 (protein)
chain: MGCTVSTQTIGDESDPFLQNKRANDVIEQSLQLEKQRDKNEVKLLLLGAGESGKSTIVKQMKIIHE
functional complementation of the growth arrest phenotype of gpa1 strains (yeast Gβγ): functionally complement
Result (coupling of the C5a receptor to Gα chimeras in yeast) (C5a receptor [1]): GPA141-Gαi2single copy, Good signal to noise ratio:

B2: C5a: 74 amino acid polypeptide that derives from the fifth component of complement; anaphylatoxin (protein)
chain: TLQKKIEEIAAKYKHSVVKKCCYDGACVNNDETCEQRAARISLGPRCIKAFTECCVVASQLRANISHKDMQLGR
competition for binding with radiolabeled C5a (induced HL60 cells): compete for binding
growth on selective plates lacking histidine (pheromone pathway activation via C5a receptor) (C5a receptor [2]; CY455 R+L+ strain, pH 6.8, 1 mM aminotriazole): show growth on the selective plates
aminotriazole concentration on which the R+L+ strain will grow (C5a receptor [2]; CY455 R+L+, highest concentration tested): up to 5 mM
Kd (C5a receptor [3]): 1 nM
